Where a chain is given by its changes, count along the chain named.

The text below walks through data of publication PMC6821881 (2019).

To fix the notation:
T1: ZIKV E DIII protein (residues 301-403) (Zika virus (strain GZ01))
T1 chain: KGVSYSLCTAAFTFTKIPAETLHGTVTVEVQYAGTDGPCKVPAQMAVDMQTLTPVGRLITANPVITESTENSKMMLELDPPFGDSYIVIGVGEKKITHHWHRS

B1: 2H-15 (antibody, V domains shown)
VH: EVQLVQSGAEVKKPGASVKVSCKASGYTFTSYDVNWVRQATGQGLEWMGWMNPNSGNTGYAQKFQGRVTMTRNTSISTAYMELSSLRSEDTAVYYCARVSSGSYYGSYYYYYYGMDVWGQGTTVTVSS
VL: SYELTQPPSASGTPGQRVTISCSGSSSNIGNNYVHWYQQLPGSAPKLLIYRNNQRPSGVPDRFSGSKSGTSGSLAISGLRSEDEADYYCASWDDSLSGHWVFGGGTKVTVL
B2: 2H-4 (antibody, V domains shown)
VH: B1 VH with E1Q, A9R, A24G, V34I, T41P, E89G
VL: B1 VL
B3: 2H-14 (antibody, V domains shown)
VH: B1 VH with E1Q, Q3H, L4A, D33G, V34I
VL: B1 VL
B4: 2H-5 (antibody, V domains shown)
VH: B1 VH with E1Q, K19N, S31M, V34I, A40T
VL: B1 VL
B5: 2H-6 (antibody, V domains shown)
VH: B1 VH with M51L, Q62E
VL: B1 VL
B6: 2H-2 (antibody, V domains shown)
VH: QVQLVQSGAEVKKPGSSVKVSCKASGGTFSSYAISWVRQATGQGLEWMGGIIPIFGTANYAQKFQGRVTITADESTSTAYMELSSLRSEDTAVYYCARVSSGSYYGSYYYYYYGMDVWGQGTTVTVSS
VL: B1 VL
B7: 2H-9 (antibody, V domains shown)
VH: B1 VH with A9G, E10K, K12V, K13E, P14L, S31T, V34I
VL: B1 VL
B8: 2H-1 (antibody, V domains shown)
VH: B1 VH with E1Q, V34I
VL: B1 VL
B9: 2H-16 (antibody, V domains shown)
VH: B1 VH with E1Q, V34I, Y60C
VL: B1 VL
B10: 2H-10 (antibody, V domains shown)
VH: B1 VH with E1Q, A9V, K19E, K23Q, Y27I, F29S, V34I, T41N
VL: B1 VL
B11: 2H-3 (antibody, V domains shown)
VH: B1 VH with E1Q, A9R, D33E, V34I
VL: B1 VL
B12: 2L-1 (antibody, V domains shown)
VH: EVQLVQSGAEVKKPGASVKVSCKASGYTFTSGHTFPSYDINWVRQATGQGLEWMGWMNPNRGNTGYAQKFQGRVTMTRNTSINTAYMELSSLRSEDTAVYYCARVRSGTNYGSYYYYYYGMDVWGQGTTVTVSS
VL: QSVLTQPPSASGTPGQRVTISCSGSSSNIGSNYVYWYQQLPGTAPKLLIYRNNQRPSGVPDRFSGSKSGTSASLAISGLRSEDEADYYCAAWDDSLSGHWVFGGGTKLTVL
B13: ZK2B10 (antibody, V domains shown)
VH: B12 VH
VL: B1 VL
B14: 2L-11 (antibody, V domains shown)
VH: B12 VH
VL: YSVLTDHPSASGTPGQRVTISCSGSSSNIGSNYVYWYQELPGTAPKLLIYNNNQRPSGVPDRFSGSKSGTSASLAISGLRSEDEAYYYCAAWDDSLSGHWVFGGGTKLTVL
B15: 2L-8 (antibody, V domains shown)
VH: B12 VH
VL: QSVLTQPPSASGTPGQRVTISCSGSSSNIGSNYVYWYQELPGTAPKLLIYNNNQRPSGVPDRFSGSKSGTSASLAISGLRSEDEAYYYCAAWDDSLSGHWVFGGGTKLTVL
B16: 2L-3 (antibody, V domains shown)
VH: B12 VH
VL: B14 VL with Y1Q, D6H, H7R, V34G, E39Q, N51R, Y86D
B17: 2L-9 (antibody, V domains shown)
VH: B12 VH
VL: B14 VL with Y1S, D6Q, H7P, S27T, V34A, E39Y, N51R, S66F, I76V, Y86D
B18: 2L-2 (antibody, V domains shown)
VH: B12 VH
VL: B14 VL with Y1Q, D6H, H7R, T13H, S31N, E39Q, N51R, Y86D
B19: 2L-6 (antibody, V domains shown)
VH: B12 VH
VL: SVLQPQPPSASRHPGQRVTISCLHGSSSNIGNNYVSWYQQLPGTDPKLLIYRNNHAASGVPDRFSGSKSGTSASLAISGLRSEDEADYYCAAWDDSLSGHWVFGGGTKLTVL

The target in the first test is T1, ZIKV E DIII protein (residues 301-403). Nature of the test: ELISA. A general note: ELISA stands for enzyme-linked immunosorbent assay.
Turning to B1, the EC50 – broadly, the concentration that produces a half-maximal response – turned out to be 10 ng/mL.

On to B2, for which the half-maximal effective concentration (EC50) stood at 8.4 ng/mL. The EC50 values of the last two molecules are within 1.5-fold of each other.

B3 gave an EC50 of 215 ng/mL.

Molecule B4 showed an EC50 of 4.8 ng/mL. Against the preceding molecule, the EC50 is about 45-fold lower.

Regarding B5, the midpoint of the response, the EC50, lay at 3.9 ng/mL.

For B6, the EC50 is more than 500 ng/mL.

Molecule B7 had an EC50 of 5.9 ng/mL.

As for B8, the midpoint of the response, the EC50, lay at 3.4 ng/mL.

As to B9, the EC50 was 4.1 ng/mL.

With B10, a half-maximal response (EC50) required 11.2 ng/mL.

As for B11, a half-maximal effect (EC50) was put at 39 ng/mL.

As to B12, the EC50 was more than 500 ng/mL.

The molecule B13 returned an EC50 of 7.1 ng/mL.

In turn, B14 gave an EC50 of more than 500 ng/mL.

The molecule B15 registered an EC50 of more than 500 ng/mL.

B16 displayed an EC50 of more than 500 ng/mL.

For B17, the EC50 was more than 500 ng/mL.

Turning to B18, the midpoint of the response, the EC50, lay at 267 ng/mL.

For B19, the EC50 was determined as 335 ng/mL. This EC50 and that of the molecule before are within 1.5-fold of each other.

The next test deals with ZIKV E protein (GZ01) (Zika virus (strain GZ01)). In words: ELISA.
B1 returned an EC50 of 7.5 ng/mL.

Take B2: it took 6.5 ng/mL to reach a half-maximal effect (EC50).

As for B3, the EC50 was 242 ng/mL.

Molecule B4 returned an EC50 of 6.2 ng/mL.

The molecule B5 had an EC50 of 4.6 ng/mL. This EC50 and that of the molecule before are within 1.5-fold of each other.

With B6, the EC50 is more than 500 ng/mL.

B7 displayed an EC50 of 4.2 ng/mL.

Consider B8, for which the 50% effective concentration (EC50) was found to be 5.3 ng/mL.

The molecule B9 displayed an EC50 of 5.8 ng/mL.

Take B10: the concentration for a half-maximal effect (EC50) came to 5.2 ng/mL.

B11 registered an EC50 of 23.7 ng/mL.

Take B12: the concentration giving a half-maximal response (EC50) was more than 500 ng/mL.

Consider B13, for which the EC50 turned out to be 3.3 ng/mL.

Regarding B14, the EC50 was more than 500 ng/mL.

With B15, the 50% effective concentration (EC50) was more than 500 ng/mL.

Take B16: the EC50 is more than 500 ng/mL.

Turning to B17, the EC50 is more than 500 ng/mL.

The molecule B18 displayed an EC50 of 216 ng/mL.

B19 came in with an EC50 of 356 ng/mL.
